Measured values as given in patent US20240287172A1 (SCIRHOM, published 2024).
Where a chain is given by its changes, count along the chain named.

B1: antibody 48 (antibody, V domains shown)
VH: QVQLQQSGTELVRPGTSVKVSCKASGYAFTNYLIEWVKQRPGQGLEWIGVINPGSGFTKYNEKFKGKATLTADKSSSTVYMHLSSLTSEDSAVYFCARGLYRAMDYWGQGTSVTVSS
VL: DIQMTQSPASQSASLGESVTITCLASQTIATWLAWYQQKPGKSPQLLIYGATTLADGVPSRFSGGGSGTKFSFKISSLQAEDFVSYYCQQLYSTPYTFGGGTKLEIK
notes: mouse IgG, kappa light chain; also called clone #48; purified antibody 48
B2: antibody 50 (antibody, V domains shown)
VH: B1 VH with T9A, T16A, T30S, V79A, H82Q
VL: B1 VL with A30G, G50A, T52A, T53S, S85N, L91I
notes: mouse IgG, kappa light chain; also called clone #50; purified antibody 50

Target: T1, hiR2-FL-E617D-T7 (human, UniProt Q6PJF5 1-856)
T1 sequence: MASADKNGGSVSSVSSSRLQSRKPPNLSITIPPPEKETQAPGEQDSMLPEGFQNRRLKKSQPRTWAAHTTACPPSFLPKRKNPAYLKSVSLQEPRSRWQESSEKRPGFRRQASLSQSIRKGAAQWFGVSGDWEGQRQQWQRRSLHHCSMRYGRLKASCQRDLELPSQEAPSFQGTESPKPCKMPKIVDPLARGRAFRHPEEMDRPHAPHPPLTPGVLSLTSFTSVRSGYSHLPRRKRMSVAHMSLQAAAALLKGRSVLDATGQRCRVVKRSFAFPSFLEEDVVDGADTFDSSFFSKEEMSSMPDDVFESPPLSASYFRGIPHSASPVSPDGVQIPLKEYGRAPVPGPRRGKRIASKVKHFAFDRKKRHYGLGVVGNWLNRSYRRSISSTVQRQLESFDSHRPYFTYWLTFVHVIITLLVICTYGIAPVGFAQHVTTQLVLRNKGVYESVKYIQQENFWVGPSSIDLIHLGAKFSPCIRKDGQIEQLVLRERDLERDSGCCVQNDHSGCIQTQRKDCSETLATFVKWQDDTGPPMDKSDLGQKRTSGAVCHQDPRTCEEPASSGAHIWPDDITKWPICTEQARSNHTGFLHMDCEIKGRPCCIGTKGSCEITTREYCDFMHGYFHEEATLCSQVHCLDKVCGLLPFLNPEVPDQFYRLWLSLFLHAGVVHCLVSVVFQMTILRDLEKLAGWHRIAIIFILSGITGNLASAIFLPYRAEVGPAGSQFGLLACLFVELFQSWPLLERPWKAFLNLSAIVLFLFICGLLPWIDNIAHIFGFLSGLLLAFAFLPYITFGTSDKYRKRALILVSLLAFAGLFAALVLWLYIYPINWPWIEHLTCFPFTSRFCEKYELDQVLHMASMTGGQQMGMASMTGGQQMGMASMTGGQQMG
Assay: FACS, MEF-DKO cells, 3 µg/ml
Summary of the method: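 MEF-DKO cells expressing T7-tagged full-length hiR2 point mutants were stained on ice for 1 h with purified antibodies at 3 μg/ml in FACS buffer. Detection used PE-conjugated goat anti-mouse IgG F(ab′)2 (1:100, 1 h on ice), read by flow cytometry; buffer-only wells served as controls.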

Binder | loss of binding vs wild type [%]
B1 | ≥ 30
B2 | ≥ 30
